{"source": "paper PMC9592637", "about": "“Functional characterization and transcriptional repression by Lacticaseibacillus paracasei DinJ-YafQ” (Applied Microbiology and Biotechnology, 2022)", "key": {"[1]": {"system": "DinJ;YafQ_pa4366 (Lacticaseibacillus paracasei 4366;Lacticaseibacillus paracasei 4366)", "test": "EMSA", "conditions": "EMSA: 2 nM DNA, 128 ng salmon sperm DNA in 10 uL, 50 mM Tris-HCl pH 7.5, 50 mM KCl, 5% glycerol, room temperature 10 min, 6% native PAGE in TBE; RNAP …"}, "[2]": {"system": "DinJ R13A (Lacticaseibacillus paracasei 4366)", "test": "EMSA", "conditions": "complete loss of binding up to 1.5 uM; EMSA: 2 nM DNA, 128 ng salmon sperm DNA in 10 uL, 50 mM Tris-HCl pH 7.5, 50 mM KCl, 5% glycerol, room temperature 10 min, 6% native PAGE in TBE; RNAP …"}, "[3]": {"system": "DinJ;YafQ_pa2333 (Lacticaseibacillus paracasei 4366;Lacticaseibacillus paracasei 2333)", "test": "EMSA", "conditions": "EMSA: 2 nM DNA, 128 ng salmon sperm DNA in 10 uL, 50 mM Tris-HCl pH 7.5, 50 mM KCl, 5% glycerol, room temperature 10 min, 6% native PAGE in TBE; RNAP …"}, "[4]": {"system": "T1, DinJ;YafQ_pa4366 (Lacticaseibacillus paracasei 4366;Lacticaseibacillus paracasei 4366), ORF:82b9b73a+ORF:f6e62217", "T1 sequence 1": "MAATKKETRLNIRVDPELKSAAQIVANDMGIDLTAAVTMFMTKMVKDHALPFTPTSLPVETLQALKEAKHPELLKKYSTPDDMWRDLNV", "T1 sequence 2": "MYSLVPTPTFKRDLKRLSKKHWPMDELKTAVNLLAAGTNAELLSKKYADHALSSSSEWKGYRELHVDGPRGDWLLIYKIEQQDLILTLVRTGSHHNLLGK", "test": "competition", "conditions": "EMSA: 2 nM DNA, 128 ng salmon sperm DNA in 10 uL, 50 mM Tris-HCl pH 7.5, 50 mM KCl, 5% glycerol, room temperature 10 min, 6% native PAGE in TBE; RNAP …"}}, "note": "pKd: −log10 of the molar value."}
{"substance": "194-bp dinJ-yafQ promoter fragment", "values": [{"measurement": "pKd", "setting": "[1]", "value": 7.36}, {"measurement": "pKd", "setting": "[2]", "value": "< 5.82"}, {"measurement": "pKd", "setting": "[3]", "value": 7.10}]}
{"substance": "CGTCCTCAAGCTGCTCTTGTGTTAATGGTTTCTTTTTTGTGCTCATACGTTAAATCTATCACCGCAAGGGATAAATATCTAACACCGTGCGTGTTGACTATTTTACCTCTGGCGGTGATAATGGTTGCATGTACTAAGGAGGTTGTATGGAACAACGCATAACCCTGAAAGATTATGCAATGCGCTTTGGGCAAAC (double strand) [196-bp lambda PR promoter fragment]", "values": [{"measurement": "binding", "setting": "[4]", "value": "no binding"}]}
